Results as given in paper PMC4128677, “Somatostatin Analogues for Receptor Targeted Photodynamic Therapy” (PLoS ONE, 2014).
Like-named read-outs stand apart in the source and are kept apart here. Positions of bridges follow the written chain, without caps; N, C: chain ends. Non-standard residues stand in square brackets, D forms with d. Residues, ends and D or L forms follow the SMILES beside them. *: point of attachment. X1 = C=Cc1c(C)c2cc3nc(c(CC(=O)O)c4[nH]c(cc5nc(cc1[nH]2)C(C)=C5CC)c(C)c4C(=O)O)[C@@H](CCC(=O)*)[C@@H]3C

Key:
[1] = 1-Octanol/PBS partition coefficient; format: physicochemical
Experimental: Partition coefficient. Stock solutions of Ce6 and conjugates (0.6 mM) were prepared in DMSO. Lipophilicity was characterized by their partition coefficient Poct/buffer = Coct/Cbuffer between two solvents 1-octanol (oct) and PBS, pH = 7.4 (buffer). Measurements were carried out in duplicates as described by Cunderlikova et al.

sst2 = biological target: T1, sst2 (Homo sapiens, UniProt P30874); assay: Displacement of [125I]-SS14 binding, membrane preparations of K562 sst2+ cells
T1 construct: expressed in transfected cells; host or cells: K562 (human erythroleukemic) cells stably transfected with LZRS-lyt2-IRES-sst2; membrane preparations
Experimental: Copy DNA of the human sst2 receptor was merged into a LZRS-lyt2-IRES plasmid background (lyt2 being the mouse CD8 receptor). The calcium precipitation method was used to transfect non-adherent K562 cells with the LZRS-lyt2-IRES-sst2. Expression of lyt2 was evaluated by means of FACS analysis using FITC labeled anti-mouse CD8 antibody (BD PharMingen, Netherlands), 1∶160 diluted in FACS-buffer. Clones were grown form Lyt2 positive isolated cells. Vital clones were cultured and tested in time for stability of sst2 receptor expression, by means of both FACS analysis (using FITC labeled octreotate 200 nM) as well as sst2 mRNA expression by RT-PCR as previously described. […] K562 cells were grown in RPMI 1640 containing L-glutamine, 10% heat-inactivated FCS, 50 µg/ml penicillin and 50 µg/ml streptomycin, and were maintained in an incubator at 37°C in an humidified atmosphere of 5% CO2.
The binding potency of Ce6-conjugates to sst2 on K562 sst2 ^+ cells was evaluated on cell membrane preparations.

[2] = Photobleaching under 652 nm irradiation in PBS; format: physicochemical
Experimental: Photobleaching measurements. The loss of photosensitizer absorbance and fluorescence during irradiation was used to monitor photobleaching. Solutions of Ce6 and Ce6-conjugates were prepared in PBS pH = 7.4. The concentration of photosensitizers were adjusted so that all absorb the same number of photons at irradiated region (O.D. = 0.014 at the λirr. = 652 nm (Biolitec pharma, UK). Data was acquired in quartz cuvettes in aerobic conditions using stirring under uniform, measured irradiation at 5 mWcm^-2. At intervals, the cuvette was removed from magnetic stirrer and absorption and fluorescence emission spectrum (λexc = 405 nm) acquired. The initial absorption bleaching rate constants (kblA) for Ce6 and conjugates were evaluated as reported.

[3] = pH titration of fluorescence/absorbance (pKa); format: physicochemical
Experimental: pH measurements. The pH titration of PBS was performed with HNO3 and NaOH over pH 4.0-8.5. The final concentration of Ce6 and Ce6-conjugates in solution was 0.8 µM. The pH was measured by Sentron pH meter (Sentron Europe, NL) and the absorption and fluorescence emission (λexc = 408 nm) profiles of solutions were recorded. The inflection point of titration curves (pKa) were evaluated as reported. Briefly, the results of fluorescence titrations are presented in terms of a plot of fluorescence intensity as a function of pH with the constant concentration of the compound used throughout measurements. However, variations of fluorescence intensity are due to at least two contributions: the changes of molar extinction coefficient (differed absorbed intensity) and the changes of quantum efficiency with pH. To eliminate the influence of the molar extinction coefficient variations, the ratio of fluorescence intensity at the peak position to the absorbance at the excitation wavelength was plotted, followed by sigmoidal function fitting procedure (Figures S2-S4).

[4] = Singlet oxygen quantum yield (SOSGR photooxidation); format: physicochemical; conditions: PBS pH = 7.4; SOSGR 1 µM; relative to ΦΔ = 0.64 of Ce6; in duplicate
Experimental: Singlet Oxygen Quantum Yield Measurements. Photooxidation of Singlet Oxygen Sensor Green Reagent (SOSGR) (Molecular Probes, NL) was used to determine the singlet oxygen formation by Ce6 and Ce6-conjugates. We used SOSGR because of its high selectivity for singlet oxygen and low sensitivity to hydroxyl radicals/superoxides. Stock solution of SOSGR (5 mM) was prepared in methanol. The final concentration of SOSGR within the photosensitizer solution in PBS pH 7.4 was 1 µM. The irradiation was performed the same as for photobleaching measurements described above. The singlet oxygen quantum yields (Φ?) of conjugates in PBS were determined in duplicate by a relative method with a Φ? = 0.64 of Ce6 in the PBS at pH 7.4 as reference.

K562 sst2+ cells [5] = assay: Cellular uptake in K562 sst2+ and WT cells; format: cell-based, human; conditions: 1 µM; serum-free and 5% FCS medium; fluorescence of lysate, λexc = 405 nm
Experimental: Stock solutions of Ce6 and Ce6-conjugates (1 mM) were dissolved in 80% DMSO and were stored in the dark at −20°C. Before experiments, the solutions were diluted to a concentration of 0.1 mM in 20% DMSO. K562 sst2+ or WT (3×10^5) in 1 ml RPMI 1640 serum-free or supplemented with 5% FCS were incubated with Ce6 or with conjugate (1 µM) for 15 min to 24 h in the dark at 37°C. After incubation, the cells were centrifuged, cell pellet dissolved in 2% SDS and fluorescence emission spectra (λexc = 405 nm) recorded. Photosensitizer concentrations were calculated in triplicate according to a calibration curve generated by mixing a known concentration of photosensitizer with a lysated control samples.

K562 sst2+ cells [6] = assay: In vitro PDT phototoxicity, K562 sst2+ cells; format: cell-based, human; conditions: K562 sst2+; 5 J.cm^−2, 652 nm
Experimental: (§1) In vitro PDT experiments were performed to determine the phototoxicity of free Ce6 and conjugates. K562 sst2+ and WT cells were seeded in L-polylysine-coated (10 µg/ml) 96-well (8×10^3/well) and 24-well (4×10^4/well) and incubated overnight in 5% CO2 at 37°C. […] After incubation, cells were washed. Fresh serum-free medium was added, and cells were illuminated with 652 nm to a dose from 0.5 to 5 J cm^−2 at 5 mW.cm^−2. Thereafter, serum-containing medium was added and cells were allowed to grow for an additional 3 days in 5% FCS medium. Toxicity was determined by: measurement of DNA contents using the bisbenzimide fluorescent dye (Hoechst 33258, Boehring Diagnostics, CA, USA) and measurement of mitochondrial dehydrogenase cleavage of WST-1 reagent (Roche Diagnostics, Germany), [39]. Experiments were done in triplicates.

K562 WT cells = assay: In vitro PDT phototoxicity, K562 WT cells; format: cell-based, human; conditions: 5 J.cm^−2, 652 nm; with or without Octreotide co-treatment
Experimental: as §1

[7] = Steady-state absorption and fluorescence in PBS; format: physicochemical; conditions: PBS pH = 7.4
Experimental: Steady-State Fluorescence and Absorption Measurements. The fluorescence quantum yields (ΦF) of Ce6 and conjugates in PBS pH 7.4 were determined by a relative method. Ce6 in the buffer at pH 7.4 with the quantum yield of 0.18 [24,32,33] was used as a reference.
The absorption profile of Ce6 and conjugate in PBS of concentration (0.06–1µM) was recorded in Shimadzu spectrophotometer (UV-2101 PC, Duisburg, Germany).
The fluorescence emission of photosensitizers was recorded in a Perkin-Elmer spectrofluorimeter (LS 50B, Massachussetts, USA). Light at 408 nm was used for excitation. The concentration range of compounds matched to the O.D. up to 0.1.

T1 sequence (P30874 whole entry): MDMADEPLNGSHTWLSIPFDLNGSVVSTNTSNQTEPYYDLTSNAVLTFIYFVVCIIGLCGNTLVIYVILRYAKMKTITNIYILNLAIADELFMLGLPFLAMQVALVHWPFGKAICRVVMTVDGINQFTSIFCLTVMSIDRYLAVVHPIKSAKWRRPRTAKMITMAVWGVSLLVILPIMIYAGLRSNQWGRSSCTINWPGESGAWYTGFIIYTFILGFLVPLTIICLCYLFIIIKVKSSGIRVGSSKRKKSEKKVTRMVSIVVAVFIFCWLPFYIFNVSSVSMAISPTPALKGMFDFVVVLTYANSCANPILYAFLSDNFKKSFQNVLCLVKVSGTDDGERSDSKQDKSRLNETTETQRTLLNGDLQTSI

SMILES	logD ([1]; pH 7.4)	IC50 (sst2; membrane preparations of K562 sst2+ cells, displacement by increasing concentrations of unlabeled compound, read-out: IC50, competition with specific binding of [125I]-SS14) [nM]	photostability [2]	pKa, inflection point of pH titration curve [3]	ΦΔ, singlet oxygen quantum yield [4]	uptake in sst2+ cells compared to WT cells (factor) (K562 sst2+ cells [5])	effect of Octreotide co-treatment (10^−5 M) on phototoxicity (K562 sst2+ cells [6])	PDT toxicity in K562 WT cells (K562 WT cells)	full width at half maximum of the Q(0,0) absorption band [7] [nm]	full width at half maximum of the Soret absorption band [7] [nm]	maximum of fluorescence band [7] [nm]	maximum of the Q(0,0) absorption band [7] [nm]	maximum of the Soret absorption band [7] [nm]	ΦF, fluorescence quantum yield ([7]; relative method, Ce6 (0.18) as reference, excitation 408 nm)	fold higher accumulation in 1-octanol than in buffer ([1]; 1-octanol / PBS pH 7.4) [×]	logD ([1]; 1-octanol / PBS pH = 7.4, Poct/buffer = Coct/Cbuffer, stock 0.6 mM in DMSO, duplicates, read-out: LogP, logarithm of partition coefficient)	fold higher potency than conjugate 1 (sst2; ratio of IC50 values, [125I]-SS14 displacement) [×]	kblA, rate constant of initial absorption bleaching ([2]; PBS pH = 7.4, 652 nm irradiation at 5 mWcm^-2, O.D. = 0.014 at 652 nm, aerobic, stirring)	pKa, inflection point of pH titration curve ([3]; Fmax/A(λexc) versus pH, sigmoidal fit, PBS titrated with HNO3 and NaOH over pH 4.0-8.5, 0.8 µM, λexc = 408 nm)
C=Cc1c(C)c2cc3nc(c(CC(=O)O)c4[nH]c(cc5nc(cc1[nH]2)C(C)=C5CC)c(C)c4C(=O)O)[C@@H](CCC(=O)N[C@@H](CCCCN)C(=O)N[C@@H](CCCCN)C(=O)N[C@@H](CCCCN)C(=O)N[C@H](Cc1ccccc1)C(=O)N[C@H]1CSSC[C@@H](C(=O)N[C@H](C(=O)O)[C@@H](C)O)NC(=O)[C@H]([C@@H](C)O)NC(=O)[C@H](CCCCN)NC(=O)[C@@H](Cc2c[nH]c4ccccc24)NC(=O)[C@H](Cc2ccc(O)cc2)NC1=O)[C@@H]3C [Conjugate 1, Ce6-K3-[Tyr3]-octreotate] (X1-KKK[dF]CY[dW]KTCT-OH; disulfide 5-10)	0.679 ± 0.04	68	higher photostability	5.38±0.0615	–	–	–	–	–	–	–	–	–	–	–	–	–	–	–
C=Cc1c(C)c2cc3nc(c(CC(=O)O)c4[nH]c(cc5nc(cc1[nH]2)C(C)=C5CC)c(C)c4C(=O)O)[C@@H](CCC(=O)N[C@H](Cc1ccccc1)C(=O)N[C@H]1CSSC[C@@H](C(=O)N[C@H](C(=O)N[C@@H](CCCCN)C(=O)N[C@@H](CCCCN)C(=O)N[C@@H](CCCCN)C(=O)N[C@H](Cc2ccccc2)C(=O)N[C@H]2CSSC[C@@H](C(=O)N[C@H](C(=O)O)[C@@H](C)O)NC(=O)[C@H]([C@@H](C)O)NC(=O)[C@H](CCCCN)NC(=O)[C@@H](Cc4c[nH]c5ccccc45)NC(=O)[C@H](Cc4ccc(O)cc4)NC2=O)[C@@H](C)O)NC(=O)[C@H]([C@@H](C)O)NC(=O)[C@H](CCCCN)NC(=O)[C@@H](Cc2c[nH]c4ccccc24)NC(=O)[C@H](Cc2ccc(O)cc2)NC1=O)[C@@H]3C [Conjugate 2, Ce6-[Tyr3]-octreotate-K3-[Tyr3]-octreotate] (X1-[dF]CY[dW]KTCTKKK[dF]CY[dW]KTCT-OH; disulfide 2-7, 13-18)	–	–	–	–	0.59±0.03	no difference	not inhibited by Octreotide co-treatment	comparable with the PDT activity on K562 sst2+ cells	26	42	665	661	405	0.03	> 600	2.82 ± 0.34	~5	22.70 x 10^−2 J^−1 cm^2	6.28±0.035
